B1: BCY20266 (peptide)
peptide: ACMQNPCRWVNIPCA
modifications: N-terminal acetyl (Ac); Ci, Cii and Ciii cysteines covalently bound to TATA scaffold
B2: BCY20264 (peptide)
peptide: ACWTDFCNNRYVVNRCA
modifications: N-terminal acetyl (Ac); Ci, Cii and Ciii cysteines covalently bound to TBMT scaffold
B3: BCY20263 (peptide)
peptide: ACTTDFCNNRYVVNRCA
modifications: N-terminal acetyl (Ac); Ci, Cii and Ciii cysteines covalently bound to TBMT scaffold
B4: BCY20265 (peptide)
peptide: ACSTDVCKLTGIAIPCA
modifications: N-terminal acetyl (Ac); Ci, Cii and Ciii cysteines covalently bound to TATA scaffold

These binders were tested against T1, COVID-19 nucleocapsid protein (N-protein) (severe acute respiratory syndrome …, UniProt P0DTC9 1-419) (assay: bio-layer interferometry (BLI)).
T1 construct: also called nucleocapsid protein (N-protein) of severe acute respiratory syndrome coronavirus 2 (SARS-CoV-2)
In the case of ACPQTYCFINNRYCA (Ci, Cii and Ciii cysteines covalently bound to TBMT scaffold) [BCY16567], the Kd is reported as 1010 nM. ACHTPDWSDFCAGRYCA (Ci, Cii and Ciii cysteines covalently bound to TBCU scaffold) [BCY16581] showed a Kd of 8040 nM. Binder ACPVRIEYPICDTSICA (Ci, Cii and Ciii cysteines covalently bound to TBMT scaffold) [BCY16582] has a Kd of 1790 nM. In the case of ACKTYCFMENRYSLSCA (Ci, Cii and Ciii cysteines covalently bound to TBMT scaffold) [BCY16563], the Kd is reported as 1540 nM. Work on ACNAWFCDGRFYMCA (Ci, Cii and Ciii cysteines covalently bound to TBCU scaffold) [BCY16569] yielded a Kd of 4270 nM. ACIVGYCPATDDFCA (Ci, Cii and Ciii cysteines covalently bound to TBMT scaffold) [BCY16571] gave a Kd of 797 nM. In the case of ACSVGYCPLTNTFCA (Ci, Cii and Ciii cysteines covalently bound to TBMT scaffold) [BCY16572], the Kd is reported as 1660 nM. In the case of ACSRGYCPRTNTFCA (Ci, Cii and Ciii cysteines covalently bound to TBMT scaffold) [BCY17637], the Kd is reported as 1050 nM. Binder ACYVGYCPATDTFCA (Ci, Cii and Ciii cysteines covalently bound to TBMT scaffold) [BCY17638] has a Kd of 805 nM. In the case of ACTKGYCPLTDMFCA (Ci, Cii and Ciii cysteines covalently bound to TBMT scaffold) [BCY17639], the Kd is reported as 1240 nM. ACKRGYCPVTDTFCA (Ci, Cii and Ciii cysteines covalently bound to TBMT scaffold) [BCY17640] was tested, and the Kd was 43000 nM. Work on ACQYTFCENRYKICA (Ci, Cii and Ciii cysteines covalently bound to TATA scaffold) [BCY16564] yielded a Kd of 2080 nM. In the case of ACSIGYCPVTDTFCA (Ci, Cii and Ciii cysteines covalently bound to TBMT scaffold) [BCY17641], the Kd is reported as 1740 nM. For B1, the Kd was 9.7 nM. For ACSEGWCFRENRYQVCA (Ci, Cii and Ciii cysteines covalently bound to TATA scaffold) [BCY16565], the Kd was 1340 nM. Work on ACTSYFCNNRFTLNTCA (Ci, Cii and Ciii cysteines covalently bound to TBMT scaffold) [BCY16566] yielded a Kd of 1110 nM. In the case of ACWTDFCNNRYIVNTCA (Ci, Cii and Ciii cysteines covalently bound to TBMT scaffold) [BCY17624], the Kd is reported as 56.3 nM. Work on ACNGDFCNNRYIVNTCA (Ci, Cii and Ciii cysteines covalently bound to TBMT scaffold) [BCY17625] yielded a Kd of 27.6 nM. ACDGNFCDNRYIVNTCA (Ci, Cii and Ciii cysteines covalently bound to TBMT scaffold) [BCY17626] showed a Kd of 263 nM. ACEGDFCDGRYIVNTCA (Ci, Cii and Ciii cysteines covalently bound to TBMT scaffold) [BCY17627] was tested, and the Kd was 36.9 nM. In the case of ACTTDFCNNRYVVNRCA (Ci, Cii and Ciii cysteines covalently bound to TBMT scaffold) [BCY17628], the Kd is reported as 16.6 nM. With B2 the Kd was 10.1 nM. For ACTTDFCNNRYVVNRCEALE (Ci, Cii and Ciii cysteines covalently bound to TBMT scaffold) [BCY18970], the Kd was 29.3 nM. ACTTDFCNSRYIVNTCA (Ci, Cii and Ciii cysteines covalently bound to TBMT scaffold) [BCY16570] showed a Kd of 442 nM. ACTTDFCNNRYVVNRCGSDN (Ci, Cii and Ciii cysteines covalently bound to TBMT scaffold) [BCY18971] gave a Kd of 27.9 nM. For ACTTDFCNNRYVVNRCDDYH (Ci, Cii and Ciii cysteines covalently bound to TBMT scaffold) [BCY18972], the Kd was 22.2 nM. AYTDCTTDFCNNRYVVNRCA (Ci, Cii and Ciii cysteines covalently bound to TBMT scaffold) [BCY18974] showed a Kd of 20.6 nM. Binder QYESCTTDFCNNRYVVNRCA (Ci, Cii and Ciii cysteines covalently bound to TBMT scaffold) [BCY18975] has a Kd of 63.8 nM. In the case of RRAVCTTDFCNNRYVVNRCA (Ci, Cii and Ciii cysteines covalently bound to TBMT scaffold) [BCY18976], the Kd is reported as 19.7 nM. EKQYCTTDFCNNRYVVNRCA (Ci, Cii and Ciii cysteines covalently bound to TBMT scaffold) [BCY18977] showed a Kd of 22.3 nM. In the case of RRAVCTTDFCNNRYVVNRCDDYH (Ci, Cii and Ciii cysteines covalently bound to TBMT scaffold) [BCY18978], the Kd is reported as 40.2 nM. QYESCTTDFCNNRYVVNRCGSDN (Ci, Cii and Ciii cysteines covalently bound to TBMT scaffold) [BCY18979] showed a Kd of 108 nM. In the case of B3, the Kd is reported as 11.8 nM. ACTTDFCNNRYVTQRCA (Ci, Cii and Ciii cysteines covalently bound to TBMT scaffold) [BCY17629] was tested, and the Kd was 41.7 nM. ACWTDFCNNRYVTQRCA (Ci, Cii and Ciii cysteines covalently bound to TBMT scaffold) [BCY17634] was tested, and the Kd was 64.2 nM. For ACFRGYCPQTNLFCA (Ci, Cii and Ciii cysteines covalently bound to TBMT scaffold) [BCY16573], the Kd was 728 nM. Binder ACTTDFCNDRYIVNSCA (Ci, Cii and Ciii cysteines covalently bound to TBMT scaffold) [BCY17630] has a Kd of 331 nM. Binder ACTTDFCNDRYIINPCA (Ci, Cii and Ciii cysteines covalently bound to TBMT scaffold) [BCY17631] has a Kd of 321 nM. ACTTDFCNDRYITELCA (Ci, Cii and Ciii cysteines covalently bound to TBMT scaffold) [BCY17632] gave a Kd of 2600 nM. ACDGNFCDNRYVTQRCA (Ci, Cii and Ciii cysteines covalently bound to TBMT scaffold) [BCY17635] was tested, and the Kd was 40300 nM. ACDGNFCDNRYVVNRCA (Ci, Cii and Ciii cysteines covalently bound to TBMT scaffold) [BCY17636] showed a Kd of 1730 nM. Binder ACTTDFCNNRYVVNQCSYPR (Ci, Cii and Ciii cysteines covalently bound to TBMT scaffold) [BCY18973] has a Kd of 225 nM. For ACTTDFCNNRYVVNQCQEQS (Ci, Cii and Ciii cysteines covalently bound to TBMT scaffold) [BCY18983], the Kd was 2450 nM. With ACNTWCMDNDRIYFNCA (Ci, Cii and Ciii cysteines covalently bound to TBMT scaffold) [BCY16574] the Kd was 1030 nM. ACTTDFCNNRYVVNLCQNKS (Ci, Cii and Ciii cysteines covalently bound to TBMT scaffold) [BCY18982] showed a Kd of 79.7 nM. In the case of MPTSCVTDFCNNRYVVNRCA (Ci, Cii and Ciii cysteines covalently bound to TBMT scaffold) [BCY18984], the Kd is reported as 72.8 nM. LEQICVTDFCNNRYVVNRCA (Ci, Cii and Ciii cysteines covalently bound to TBMT scaffold) [BCY18985] was tested, and the Kd was 28.1 nM. Work on HSLICVTDFCNNRYVVNRCA (Ci, Cii and Ciii cysteines covalently bound to TBMT scaffold) [BCY18986] yielded a Kd of 10.6 nM. Work on HSLICVTDFCNNRYVVNRCMHSQ (Ci, Cii and Ciii cysteines covalently bound to TBMT scaffold) [BCY18987] yielded a Kd of 9.7 nM. Binder KTEYCETDFCNNRYVVNRCA (Ci, Cii and Ciii cysteines covalently bound to TBMT scaffold) [BCY18988] has a Kd of 29.1 nM. Binder LARDCGTDFCNNRYVVNRCA (Ci, Cii and Ciii cysteines covalently bound to TBMT scaffold) [BCY18989] has a Kd of 26.5 nM. Binder LSQPCLTDFCNNRYVVNRCA (Ci, Cii and Ciii cysteines covalently bound to TBMT scaffold) [BCY18991] has a Kd of 10.6 nM. In the case of NQLPCLTDFCNNRYVVNRCA (Ci, Cii and Ciii cysteines covalently bound to TBMT scaffold) [BCY18992], the Kd is reported as 19.7 nM. In the case of KSQRCMTDFCNNRYVVNRCA (Ci, Cii and Ciii cysteines covalently bound to TBMT scaffold) [BCY18993], the Kd is reported as 23.8 nM. Work on ACDKWQLGCRITYKCA (Ci, Cii and Ciii cysteines covalently bound to TATA scaffold) [BCY16575] yielded a Kd of 1020 nM. In the case of NQLPCLTDFCNNRYVVNQCQEQS (Ci, Cii and Ciii cysteines covalently bound to TBMT scaffold) [BCY18994], the Kd is reported as 6890 nM. For ACSTDVCKLTGIAIPCA (Ci, Cii and Ciii cysteines covalently bound to TATA scaffold) [BCY18169], the Kd was 1600 nM. In the case of B4, the Kd is reported as 2.5 nM. In the case of ACVHDVCALTGIHIPCA (Ci, Cii and Ciii cysteines covalently bound to TATA scaffold) [BCY19453], the Kd is reported as 4240 nM. With ACMHDVCVLTGVNIPCA (Ci, Cii and Ciii cysteines covalently bound to TATA scaffold) [BCY19563] the Kd was 1510 nM. ACTHDVCVLTGISIPCA (Ci, Cii and Ciii cysteines covalently bound to TATA scaffold) [BCY19564] was tested, and the Kd was 2000 nM. In the case of ACTVDVCLLTGLHIPCA (Ci, Cii and Ciii cysteines covalently bound to TATA scaffold) [BCY19454], the Kd is reported as 7110 nM. Binder ACTVDVCELTGLHIPCA (Ci, Cii and Ciii cysteines covalently bound to TATA scaffold) [BCY19565] has a Kd of 840 nM. ACQVDVCALTGIQIPCA (Ci, Cii and Ciii cysteines covalently bound to TATA scaffold) [BCY19455] showed a Kd of 14900 nM. Binder ACLVDVCEITGVQIRCA (Ci, Cii and Ciii cysteines covalently bound to TATA scaffold) [BCY18171] has a Kd of 5610 nM. In the case of ACLPLGARCQWGRTCA (Ci, Cii and Ciii cysteines covalently bound to TATA scaffold) [BCY16576], the Kd is reported as 593 nM. ACLPLGARCQWSRTCA (Ci, Cii and Ciii cysteines covalently bound to TATA scaffold) [BCY17647] was tested, and the Kd was 548 nM. In the case of ACSVDVCAITGVHIPCA (Ci, Cii and Ciii cysteines covalently bound to TATA scaffold) [BCY19566], the Kd is reported as 3260 nM. ACHVDVCLITGVNIPCA (Ci, Cii and Ciii cysteines covalently bound to TATA scaffold) [BCY19567] showed a Kd of 2250 nM. For ACTVDVCAITGVQIPCA (Ci, Cii and Ciii cysteines covalently bound to TATA scaffold) [BCY19568], the Kd was 1870 nM. ACTNRNFCQNRYSVTCA (Ci, Cii and Ciii cysteines covalently bound to TBCU scaffold) [BCY16568] was tested, and the Kd was 8160 nM. In the case of ACSRANNYCDWWKCA (Ci, Cii and Ciii cysteines covalently bound to TBCU scaffold) [BCY16578], the Kd is reported as 22300 nM.
